Assay: yeast display, Sf9 membrane polyspecificity reagent, FACS + sequencing; frameworks hold sequencing errors
Summary of the method: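 Synthetic nanobody libraries on Saccharomyces cerevisiae BJ5465 were galactose-induced for 36–48 hours, stained 1 hour at 4 °C with 10% biotinylated, detergent-solubilized Sf9 membrane reagent and enriched on streptavidin microbeads. FACS then separated cells into low and high (top ~1%) gates by anti-HA (expression) and streptavidin (reagent binding) fluorescence. Genes were colony-PCR amplified, MiSeq 2 × 250 sequenced and CDR-length filtered. A clone's polyreactivity label is that of its gate of origin.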

Row | Sequence | polyreactivity (PSR sort gate)
1 | QVQLVESGGRLVQAGGSLRLSCAASGRIFLNYDMGWYRQAHGKERELVAAITWSTGSTYADSVKGRFTISRDNAKNNVYLKMNSLKPEVTAVYYCAAPWGQTDDRHKGGDYWGQGSQVTVSS | low polyreactivity
2 | QVQLVESGGGLVQAGGSLRLSCAASGRIFAGYAMGWYRQAPGKERELVASIRYSGGSTYADSVKGRFPISRDNAKNTVYLQMNSLKAEDTAVYYCAADIRQFYVGWGSTLWYGHDYWGQGTQVTVSS | low polyreactivity
3 | QVQLVESGGGLVQAGGSLRLSCAASGSTFETNGMGWYRQAPGKERELVAAITSGGSTYYADSVKGRFTISRDNAKNTVYLQMNSLKPEDTAVYYCAAVDGGWAYDPYDYWGQGTQVTVSS | low polyreactivity
4 | QVQLVESGGGLVQAGGSLRLSCAASGRIFSQNAMGWYRQAPGKERELVAAISGGSTNYADSVKGRFTISRDNAKNTVYLQMNSLKPEDTAVYYCAVRWYFYHRSVEYDYWGQGTQVTVSS | low polyreactivity
5 | QVQLLESGGGLVQAGRSLRLSCAASGRIFRYYAMGWYRQAPGKERELVAAISYSTGGTSTYADSVKGRFTISRDNAKTTVYLQMNSLKPEDTAVYYCAVRRQYRRAYSFSQSRYDYWGQGTQVTVSS | high polyreactivity
6 | QVQLVESGGGLVQAGGSLRLSCAASGSTFSSNAMGWYRQAPGKERELVAAINRTGNTYYADSVKGRFTISRDNAKNTVYLQMNSLKPEDTAVYYRNTVLNLYRGGGYWGQGTQVTVSS | low polyreactivity
7 | EVQLVESGGGLVQPGGILRVSCAASGYIYSRYRKGWYRQAPGKRREFVAAISGGSSTNYADSVKGRFTISRDNSKKTVYLQMNSLRAEDTAVYYCADSKIDSDPRVYWGQGYQVTVSS | low polyreactivity
8 | QVQLGESGGGLVQAGGSLRLSCAASGSTLYPYAMGWNRQATGTERELFAAISWSGTRTYYADSVKGRFTISRDNAKNTVYLQMNSLKQEDTAVYYCAKSRTRYPSNTKYDYWGQGTQVTVSS | high polyreactivity
9 | QVQLVESGGGLVQAGGSLRLSCAASGFIFISNAMGWSRQAPGKERELVARISDTDRTHYADSVKGRFTISRDNAKNTVYLQMNSLKPEDTAVYYCAAYDYNAIEYGYWGQGSQVTVSS | low polyreactivity
10 | QVQLVESGGGIVQAGGSLRLSCAASGLILANNAMGRYRQAPGKETELVATISSSGGRTSYADSVKGRFTISRDNAKNTVYLQMNSLKPEDTAVYYCAKYCGRYPHGRSWYDYWGQGTQVTVSS | high polyreactivity
11 | QVQLVESGGGLVQAGGSLRLSCAASGRIFFTNAMGWYRQAPGKERELVAAITSTGSRTYYADSVKGRFTISRDNAKNTVYLQMNSLKPEDTAVYYCNRVSHLDYYWGQGTQVTVSS | high polyreactivity
12 | QVQLVESGGGLVQAGGSLRLSCAASGSIIKWNAMGWDRKAPGQEREFVASITRSGGSTYYADSVKGRITISRDNAKNTVYLQMNSRKPEDTAVFYCARSYGWYRWAGYDYWGKGTQVTVSS | high polyreactivity
13 | QAQLVESGGGLVQSGGSLRLSCAASGSIFRPYAMGWYRQAPGKERELVAAISSSGGGTYYADSVKGRFTISRDNAKNTVYLQMNILKPEDTSVYLYGSWGQGTQVNVSS | low polyreactivity
14 | QVQLVESGGGLVQAGGSLRLSCAASGRIFRGNGMGWYRQAPGKERELVAAIRRSGGSTYYADSVKGRFTISRDNAKNTVYLQMNSLKPDDTAVFYCNADYTVVLSRVIYARGYWGQGTQVTVSS | high polyreactivity
15 | QVQLVESGGGLVQAGGSLRLSSAASGFIFDGNAMGWYRQAPGKERELVAAIRSGGRTNYADSVKGRFTISRDNAKNTVYLQMNSLKPEDTAVYYCAARSIYPYYYRRDNRYYYWGQGTQVTVSS | high polyreactivity
16 | QVQLVESGGGLVQAGGSLRLSCAASGSTFGGNAMGWYRQAPGKERELVAVISKRGGSTYYADSVKGRFTISRDNAKNTVYLQMNSLKPEDTAVYYCAAGYFIRTRSRYRYDYWGQGTQVTVSS | high polyreactivity
17 | QVQLVESGGGLVQAGGSLRLSCAASGFTFAVYAMGWYRQAPGKERELVAAINRGGGSTYADSVKGRFTISRDTAKNTVYLQMNSLKPEDTAVYYCAARVYGTRKINYSWGQGTQVTVSS | high polyreactivity
18 | QVQLVESGGGLVLAGGSLRLSCAASGFTFEKSVMGWYRQAPGNEREFVAAITRSGGRTYYADSVKGRFTISRDNAKNTVYLQMNSLKPEDTAVYFCAAAFSRSDTGGGSWGQGTQVTVSS | high polyreactivity
19 | QVQLVESGGGLDQAGGSLSLICAASASIFSYYAMGWYRQAAGKERELVATISSGGSTNYADSVKGRFTISRDNAKNTVYLQMNSLKPEDTAVYYCAATIGHNGFDYWGQGTQVTVSS | low polyreactivity
20 | QVQLVESGGGLVQAGGSLRLSCAASGRIFDPHAMGWYRPAPGKERELVASSTRRGGSTYYADSVKGRFTSSRDIAKNNVYLQMNSLKPEDTSVYYCARPNLLSGDYWGQGTQVTVSS | high polyreactivity
21 | QVHLVESVGGLVQAGGSLRLSSAASGSTFGYYAMGWYRQAPGKERELVAAINARGGSTYYADSVKGRFTISRDNAKNTVYLQMNSLKPEDTAVYYCAAVHIYSYGIYDYWGQGTQVTVSS | high polyreactivity
22 | QVQLVESGGGLDQAGGSLRLSCAASGRTFAVYAMGWYIQAPGKERELVASIRLSGTRTYYADSVKGRFTISRDHAKNTVYFQMNSLKPEDTAVYYCAAKGTYSRGTFNGYRYDYWGQGTQVTVSS | high polyreactivity

Row | Sequence | polyreactivity (PSR sort gate)
23 | QVQLVESGGGLVQAGGSLRLSCADSGSIFVWNDMGWYRQAPGKEREFVAAITSRDGSTYYADSVKGRFTISRDTAKNTVYLQMTSLKPEDTAVYYCAARLRVTGFYSRTRYYWGQGTQVTVAS | low polyreactivity
24 | QVQLVESGGGLVQAGGSLRLSCAASGIIFVRNVMGWYRQAPGKERELVAAITNGGSTYYADSVKGRFTISRDNAKNTVYLQMNSLQPEDTAVYYCAALTGVRRRYYYWGQGTQVTVSS | high polyreactivity
25 | QVQHVESGGGLVQAGGSLRLSCAASGSIISYYAMGWSRQQPGKERELVAAITANGGSTSYADSVKGRFTISRDNAKNTVYLQMNSLKPEVTAVYYCAKESDYPYYVSTKGDYDYWGQGTQVTVSS | low polyreactivity
26 | QVQLVESGGGLVQAGGSLRLSCAASGSIFTYYVMGWYRQAPGKERELVAAITISGGSTYYADSVKGRFTISRDNAKITVYLQMKSLKPEDTAVYYCAAEEVYYEADGFQYSYDYWGQGTLVTVSS | high polyreactivity
27 | QVQLVESGGGLVQAGGSLRLSCAASGRIFRLYVMGWYRQAPGKERELVARIRIRDSNTYYADSVKGRFTISRDNAKHTVYLQMNSLKPEDTAVYYCAVVATYVYSKYDYWGQGTQVTVSS | low polyreactivity
28 | QVQLVESGGGLVQAGGSLRLSCAASGLAFVFNAMGWYRQAPGKERELVAAISSGDDTNYADSVKGRFTISRDNAKNTVYLQMNSLKPEDTAVYNCAKTSDPIKRPYYYWGQGTQVTVSS | low polyreactivity
29 | QVQLVESGGGLVQAGGSLRLSCAASGSTSYNAMGWYIQAPGKERELVAAISDGGGSTYYADSVKGRFTISRDNAKNTVYLQMNSLKPEDTAVYYCAADTITGDGYWGQGTQVTVSS | low polyreactivity
30 | QVQLVESGGGLVQAGGSLRLSCAASGSIFYGNTMGWYRQAPGKERELVAAIDYRGDSTYYADSVKGRFTISRDNAKNTVYLQMNSLKPEDTAVYYCAADQTPFGQVYYGTLSIRDYWGQGTQVTVSS | low polyreactivity
31 | QVQLVESGGGLVQAGGSLRLSCAASGSTFTGYTMGWYRQAPGKERELVASIRTYYADSVKGRFTISRDNAKNTVYLQMNSLKPEDTAVYYCAAKPGRYADYDYNSWGQGTQVTVSS | low polyreactivity
32 | QVQLVESGGGLVQAGGSLRLSCDASGFTFKTNAMGWYRQAPGKERELVAAINRSGGSTYYADSVKGRFTISRDNAKNTVYLQMNSLKPEDTAVYYCATRSYLPGVRRGYDYWGQGTQVTVSS | high polyreactivity
33 | QVQLVESGGGLVQAGGSLRLSCSASGRTFTPYAMGWYRQAPGKEREFVAAISIVGRTKYADSVKGRFTISPDNAKNTFYFQMNSLKPEDTAVYYCNAQDSRDRKFYWGYTRGHWGQGTQVTVSS | low polyreactivity
34 | QVQLVESGGGLVQAGGTLRLSCAASGLTFARYAMGWYRQAPGKERELVAGIDSTGGTTYYADSVKGRFTISRDNAKNTFYLQMISLIPEDTAVYYCNTGGTFLDWVRSPFGFGYWGQGTQVTVSS | low polyreactivity
35 | QVQLVESGGGIVQAGGSLRLSCAASGITFQRNALGWYRQAPGKERELVAAISKSGGSTYYADSVKARFTISRDNAKNTVYLQMNSLKPEDTAVYDCAAPVWRYYRGKTFDFWGQGTQVTVSS | high polyreactivity
36 | QVQLVESGGGLVQAGGSLRLSCAASGSIFSYYDMGWYRQAPGKERELVASISSGGSTYYADSVKGRFTISRDNAKNTVYLQMNSLKPEDTAVYYFGAVSRWLYWEDVYWGQGTQVTVSS | low polyreactivity
37 | QVQLVESGGGLVQAGCSLRLSCAASGRTFDDYAMGWYRQAPGKERELVAAISSRCGSTYYADSVKGRFTISRDNAKNSVYLQMNSLKPEDTAVYYCNTLQSSHGSSQYDSWGQGTQVTVSS | low polyreactivity
38 | QVQLVESGGGLVQAGGSLRLSCAASGNNFYVNVMGSYRQAPGKEMEFVAAISTRGVSTSYADSVKGRFTISRDNAKYTVYLQMNSLKPEDTAVYYCAASFRRPQPKGTTYGYLGQGTQVTVSS | high polyreactivity
39 | QVQLEESGGGLVQAGGSLRLSCAATGSTIPYYAMGWYRQAPGKERELVARITSGDRTFYADSVKGRFTISRDNAKNTVYLQMNSLKPEDTAVYFCNAQVHYYSWYGYWGQGTQVTVSS | high polyreactivity
40 | QVQLVQSGGGLVQAGGSLRLSCAASGSTFSGYTMGWYRQAPGKEREFVAAISSRGGSTYYADSVKGRFTISRDNAKNTVYLQMNSLKPEDTAVYYCAAKVWARVDGRQFRMEYWGQGTQVTVSS | high polyreactivity
41 | QVQLVESGGGLVQAGGILRLSCAASGSIFRQNPMGWYRKAPGKERELVAAISSGGSTYYADSVKGRFTISRDNAKNNVYLQRNSLKPEDTAVYYCAAYHSFVWGDDYWGQGTQVTVSS | low polyreactivity
42 | QDQLVESGGGLVQAGGSLRLSCAASGSIFWYYGMGWYRQAPGKERELVAAISSGGSTNYADSVKGRFAISRDNAKNTVYLQMNSLKPEDTAVYYCAVRFTFPRYPASYSRYYYWGQGTQVTVSS | high polyreactivity
43 | QVQLVEAGGGLVQAGGSLRFSCAASGYIVRSYAMGWYRQAPGKERELVAAITRSGGSTYYADSVKGRFSISRDNAQNSVYLQMNSLKPEDTAVYYCTAKRFRTGFDYWGQGTQVTVSS | low polyreactivity

— the nanobody polyreactivity screen of Harvey et al. (2022)
